From the nanobody polyreactivity screen of Harvey et al. (2022)

Test: yeast display, Sf9 membrane polyspecificity reagent, FACS + sequencing; frameworks hold sequencing errors
In short: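 Genes from sorted yeast were amplified by colony PCR, read by MiSeq 2 × 250 sequencing and filtered on CDR length. These cells carried a synthetic nanobody library in Saccharomyces cerevisiae BJ5465 and were sorted by FACS into low and high (top ~1%) gates on anti-HA and streptavidin fluorescence. Polyreactivity is labelled according to the gate of origin.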

| Sequence | polyreactivity (PSR sort gate) |
| --- | --- |
| QVQLVESGGGLVQAGGSLRLSCAASGNIFQRYAMGWYRQAPGKVRELVAAISGNGGNSFYADSVKGRFTISRDNAKYTVYLQMNSLKPEDTAVYYCNTVYVVYGFDYWGQGTQVTVSS | high polyreactivity |
| QVQLVESGGGLVQAGGSLRLSCAASGSIFRVYAMGWYRQAPGKERELVASISRRGGSTYYADSVKGRFTISRDYAKNTVYLQMNSLKPEDTAVYYCAAEFVIGGHGYDYWGQGTQVSVSS | high polyreactivity |
| QVQLVESGGGLVQAGGSLRLSCAASGSIFEGYAMGWYRQAPGKERELVAVITTSGGDTYYADSVKGRFTISRDNAKNTVYLQMNSLKPEDTAVYYCNAADAVSDYPDFHIYDYWGQGTQVTVSS | low polyreactivity |
| QVQLVESGGGLVQAGGSLRLSCAASGSTFGPYAMGWYRQAHGKVRELVAAITESGDSTYYADSVKGRFTISRDNAKNTVYLQMNSLKPEDTAVYYCAAEFYGDKMDYWGQGTQVTVSS | low polyreactivity |
| QVQLVESGGGLVQAGGSIRLSCAASGGTFKTYVMGWNRQAPVKERELVAAINTSGTSTYYADSVKGRFTISRDNAKIKVYLQMNSLKPEDTAVYYCATRYRYTYYWGQGTQVTVSS | high polyreactivity |
| QVQLVESGGGLVQAGGSLRLSCAASGNIFTFNAMGWYRQAPGKERELVAAIRSGGSTNYADSVKGRFTISRDNAKNTVYLQMNSLIPEDTAVYYCAAKRYVQGYVYRFGYWGQGTQVTVSS | high polyreactivity |
| QVQLVESGGGLVQAGGSRRLSCAASGNTFTWYTMGWYRQAPAKERELVAVITSDGSTYYADSVKGRFTISRDNAKNTVYLQMNSLKPEDTAVYYCNALSADWYPEEDYWGQGTQVTVSS | low polyreactivity |
| QVQLVESGGGLVQAGGSLRLSCAASGNTFDGYDMGWYRQAPGKERELVAAITNTGASTYYADSVKGRFTISRDNAKNTVYLQMNSLKPEDTAVYYCIAQDSYPEDRHGMSYWGQGTQVTVSS | low polyreactivity |
| QVQLVESGGGLVQAGGSLRLSCAASGTLSSYAMGWYRQAPGKERELVAAISLSGGSTYYADSVKGRFTISRDNAKNTVYLQMNSLKPEDTAVYYCAKRPKRTYYPHIGYDYWGQGTQVTVSS | low polyreactivity |
| QVQLVESGGGLVQAGGSLRLSCAASGRIFGINARGWYRPAPGKERELVAAINWSGGSTYYADSVKGRFTISRDNAKNTVYLHMNSLKPEDTAVYYCAADFYRRYYRYGYWGQGTQVTVSS | high polyreactivity |
| QVQLVESGGGLVQAGGSLRLSCAASGTIFDAYAMGWYRQAPGKERELVAAISLDDGSTYYADSVKGRFTISRDNAKNTVYLQMNSLKPEDTAVYYCAADYYVRSQHLYATSGNYWGQGTQVTVSS | high polyreactivity |
| QVQLVESGGGLVQAGGSLRLSCAASGSILYYYAMGWYRQAPGKERELVAAISSSGGRTYYADSVKGRFTISRDNAKNTVYLQMNSLKPEDTAVYYCAATNRRQPYKDREDYWGQGTQVTVSS | high polyreactivity |
| QVQLVESGGGLVQAGGSLRLSCAASGSTFSKNGMGWYRQAPGKERELVAAITVNGGSTSYADSVKGRFTISRDNAKNTVYLQMNSLKPEDTAVYYCARRRYSKYYYWGQGTQVTVSS | high polyreactivity |
| QVQLVESGGGLVQAGGSLRLSCAASGRTFSTYVMGWYRQAPGKEREFVAAISTGGGSTYYADSVKGRFTISRDNAKNTVYLQMNSLKPEDTAVYYCAARLKWGWPTYDYWGQGTQVTVSS | high polyreactivity |
| QVQLVESGGGLVQAGGSLRLSCAASGRIFGENAMGWYRQAPGKERELVAAITWSGTSTYYADSVKGRFTISRDNAKNTVYLQMNSLKPEDTAVDYCAASATLFSSRGKRYYWGQGTQVTVSS | low polyreactivity |
| QVQLEESGGGLVQAGGSLRLSCAASGFTFRKNAMGWYRQAPGKERELVAAISSGGGRTYYADSVKGRFTISRDNANNTVYLQMNSLKPEDTAVYYCAVSIGRYPYRYGYWGQGTQVTVSS | high polyreactivity |
| QVQLVESGGGLVQAGGSLRLSCAASGSTFRSNAMGWYRQAPGKERVLVAAISRSGGSTYYADSVKGRFTISRDNAKNSVYLQMNSLKPEDTAVYYCAGRYSRDPRTGDYGYCGQGTQVTVSS | low polyreactivity |
| QVQLVESGGGLVQAGGSLRLSCAASGFIFYDYDMGWYRQSPGKERELVAAISSGGSTNYADSVKGRFTISRDNAKNTVYLQMNSLIPEDTAVYYCATDVGVERRQVDRYIYDYWGQGTQVTVSS | low polyreactivity |
| QVPLVESGGGLVQAGGSLRLSCAASGSIFGQYAMGWYRQAPGKERELVAAIRDGTGSTYYAVSVKGRFTISRDNAKNTVYVQMNSLKPEDRAVYYCAADYIWTSIVHYEYWGQGTEVTVSS | high polyreactivity |
| QVQLVESGGGLVQAGGSRRISWAASGSTFPWNVMGWYRQAPGKERELVAAISSSDGRTYYADSVKGRFTISRDNAKNTVYLQMNSLNPDDTAVDYCAASVAYYWYRTWLFDYDYWGQGTEVTVSS | high polyreactivity |
| QVQLVKSGGGLVQAGGSLRLSCAASRFIIPEYTMGWYRQAPGKARELVAAISGSGGSTYYADSVKGRFTISRDNAKHTVYLQMNSLKPEDTAVYYCATAFIVPFPGSDYWGQGTQVTVSS | low polyreactivity |
| QVQLVESGGGLVQAGGSLRLSCAASGSIIPYYAMGWYRQAPGKERELVAAISNSGGRTYYADSVKGRFTISRDNAKNTVYLQMNSLKPEDTAVYYCNAVPFYSKYDYWGQGTQVTVSS | high polyreactivity |
| QVQLVESGGGLVQAGGSLRLSCAASGFIFNYNAMGWYRQAPGKERELVAAIRTSSGSTYYADSVKGRFTISRDNAKNTVYLQMNSLKPEDTAVYYCAKTRYSTYSPIYYYWGQGTQVTVSS | high polyreactivity |
| QVQLVESGGGLVQAGGSLRLSCAASGFIFGYNAMGWYRQAAGKERELVAAISYSGGGTYYADSVKGRFTISRDNAKNTVYLQMNSLKPEDTAVYYCAARSWGRRSYDYWGQGTQVTVSS | high polyreactivity |
| QVQLVESGGGLVQAGGSLRLSCAASGRIFVHNAMGWYRQAPRKERELVAAISWSGGSTYYADSVKGRFTISRDNAKNTVYLQMNSLKPEDTAVYYCNALDPLYFRYDYWGQGTQVTVSS | low polyreactivity |
| QVHLVDSGGGLVQAGCSLPLSCAASGRTFLAYAMGWYRQEPGKERQLVAAISGSGGRSYYADSVKGRFTISRDNAMNTVYLQMNSLKPEDTAVYYCAANVVRWWGDGDYWGQGTQVTVSS | high polyreactivity |
| QVQLVESVGGLVQAGGSLRLSCAASGRTFRYNAMGWYRQAPGKERELVASITSGGSTNYADSVKGRFTISRDNAKNTVYLQMNSLKPEDTAVYYCAAEAYFWQYERDYWGQGTQVTLSS | low polyreactivity |
| QEQLEESGGGLVQAGGRLRLSCAASGSIFTTYTMGWYRQAPGKERELVAAIDYSGDSTYYADSGKGRFTISRDTAKNTVYLQMNSLKPEDTAVYYCNAVSFSAYVPYGYWGQGTQVTVSS | low polyreactivity |
| QVQLVESGGGLVQAGGSLRLSCAASGRIFSYYAMGWYRQAPRKERELVAGINWRGGRTYYADTVKGRFTISRDNAKITGYLQMNSLKPEETAVYYCAGDHPETPYDYWGQGTQVTVSS | high polyreactivity |
| QVQIVESGGGLLQAGGSLRLSCAASGRIFRRNAMGWYRQATGKERELVAAISKSGGSTYYADSVKGRFTISRDNAKNTVYLQMNSLKPEDTAVYYCAAEYSDRYDYWGQGTQVTVSS | high polyreactivity |
